In patent US20030215792A1 one finds decrease in intracellular calcium outflow in cultivated astrocytes after 5 minutes' pre-incubation with monoclonal antibody 12G5 data, which are given here for one substance.

In this assay the target is CXCR4 receptor on cultivated primary astrocytes of rats (rat) (UniProt O08565). Briefly: cell-based or functional assay.
Sequence of UniProt O08565 (O08565 whole entry): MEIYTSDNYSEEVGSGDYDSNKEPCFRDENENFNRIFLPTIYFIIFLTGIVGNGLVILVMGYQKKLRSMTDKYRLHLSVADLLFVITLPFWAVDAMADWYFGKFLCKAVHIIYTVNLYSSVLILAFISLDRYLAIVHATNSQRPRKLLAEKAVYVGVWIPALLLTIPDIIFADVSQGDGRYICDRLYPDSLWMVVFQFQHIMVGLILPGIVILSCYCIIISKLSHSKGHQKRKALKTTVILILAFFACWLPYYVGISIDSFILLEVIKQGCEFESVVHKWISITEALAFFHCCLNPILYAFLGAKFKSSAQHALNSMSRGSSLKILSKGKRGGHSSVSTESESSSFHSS

Turning to “SDF-1α (R&D Systems, Wiesbaden) (ligand)”, the decrease in intracellular calcium outflow in cultivated astrocytes after 5 minutes' pre-incubation with monoclonal antibody 12G5 came out at 50%.
